Experimental data as given in the nanobody polyreactivity screen of Harvey et al. (2022).

Experiment: yeast display, Sf9 membrane polyspecificity reagent, FACS + sequencing; frameworks hold sequencing errors
Summary of the method: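 Nanobodies came from a synthetic yeast display library in Saccharomyces cerevisiae BJ5465, induced with galactose for 36–48 hours and stained for 1 hour at 4 °C with 10% biotinylated, detergent-solubilized Sf9 membrane reagent. Cells were enriched on streptavidin microbeads and then FACS-sorted, with low and high (top ~1%) gates set on anti-HA fluorescence for expression and streptavidin fluorescence for reagent binding. Each polyreactivity label reflects the gate a clone came from. Genes were amplified by colony PCR, sequenced by MiSeq 2 × 250 and filtered by CDR length.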

Row | Sequence | polyreactivity (PSR sort gate)
1 | QVQLVESGGGLVQAGGSLRLSCAASGSIFVSYAMGWYRQAPGKERELVAAITRSGGSTYYADSVKGRFTISRDNAKNTVYLQMNSLKPEDTAVYYCAARSYLGAYRRYYWGQGTQVNVSS | high polyreactivity
2 | QVQLVESGGGLVQAGGSLRLSCAASGITFSRYAMGWYRQAPGKERELVAAISSGGSTYYADSVKGRFTISRDNAKNPVYLQMNSLKPEDTAVYYCAAVILSRWASYREYYYWGQGTQVTGSS | high polyreactivity
3 | QVQLVESGGGLVQAGGSLRLSCAASGSTFNNNAMGWYRQAPGKERELVAAISYTGGSTYYADSVKGRFTISRDNAKNTVYLQMKSLKPEDTAVYYCDAAYPHFGGYRYDYWGQGTQVTVSS | high polyreactivity
4 | QVQLVESGGGLVQAGGSLRLSCAASGSIFYPYAMGWYRQAPGKERELVAAIRRSGTTYYADSVKGRFTISRDNAKNTVYLQMNSLKPEDTAVYYCNKVRGQEPSNYDYWGQGTQVTVSS | low polyreactivity
5 | QVHLVESGGGLVQAGGSLRLSCAASGRIFFTNAMGWYRQAPGKERELVATISSSDGSTYYADSVKGRFTISRDNAKYTVYLQMNSLKPEDTAVYYCAALYSFRGSRQYTYKYYYWGLGTQVTVSS | high polyreactivity
6 | QVQLVESGGGLVQAGGSLRLSCAASGRTFPKYAMGWYRQATGKERELVAAISSSGGNTYYADSVKGRFTISRDKAKTTVYLQMNSLTPEDTAVYYCAARLPRGAYYYWGQGTQLTVSS | high polyreactivity
7 | QVQIVESGGGLVQAGGSLRLSCAASGSTSYRYAMGWYRQATGQERALVAAIPWISDSTYYADSVKGRFTISRDNAKNTVYLQMNSLKPEDTAVYYCNTDPLVTSVTFNYWGQGTQVTVSS | low polyreactivity
8 | QVQLVESGGGLVQAGGSLRLSCAASGSIFDLNAMGWYRQAPGKERELVAAISSVGGTYYADSVKGRFTISRDNAKNTGYLQMNSLKPEDTAVYYCNRVTRWTYNYWGQGTQVTVSS | high polyreactivity
9 | QVQLVESGGLLVQAGGSLRLSCAASGRIFNYNAMGWYRQAPGKERELVAAIDSGGRTNYADSVKARFTISRDNAKNTGYLQMNSLKPEDTAVYYCNREAAHGSLRWTEMEYWGQGTQVTVSS | low polyreactivity
10 | QVQLVESGGGLVQAGGTLRFSCAASGLTIDRYAMGWYRQAPGKERELVAAISFTGDRTYYADSVKGRFTISRDNAKNTVYLQMNSLKPEDTAVYYCAVRRYGYRKYDSWGQGTQVTVSS | high polyreactivity
11 | QVQLVESGGGLVQAGGSLRLICAASGSIFRIYAMGWYRQAPGKEREFVAAISRRGGSTYYADSVKGRFTISRDNAKNTVYLQMNSLKPEDTAVYYCAASGGGSDAYWGQGTQVTVSS | high polyreactivity
12 | QVQLVESGGGLVQAGGSLRLSCAASGRIFQRYAMGWYSQAPGKERELVAAISSRGGRTFYADSVKGRFTISRDNAKNTVYLQMNSLKPEDTAAYYCAATATVGCVSFDYWGQGTQVTVSS | high polyreactivity
13 | QVHLVESRGVLVQAGGSLRLSCAASGRTFGYYAMGWYRQAPGKERELVAAINGSGSRTYYADSVKGRFTISRDNAKNSVYLQMNSLKPEDSAVYYCAATYPKYQYDYWGQGTQVTVSS | high polyreactivity
14 | QVQLVESGGGLVQAGGSLRLSCAASGFTFYANTMGWYRQAPGKERELVAAISKSGGRTYYADSVKGRFTISRDNAKNTVYLQMNSLKPEDTAVYYCAASSGYKRNYWGQGTQVTVSS | high polyreactivity
15 | QVPLVESGGGLVQAGGSLRLSCAASGSIFAPYTMGWYRQAPGKERELVAAISVTTGITYYADTLKGRFTISRDNAKNTVYLQMNSLKPEDTGVYYCAAELYKSLWYEYWGQGTQVTVSS | low polyreactivity
16 | QVQLVESGGGLFQAGGSLRLSCAASGFTFARYAMGWYRQAPGKEWELVARISWSGGSTYYADSVKGRFTISRDYAKNTFYLQMYSLKPQVTEVYYCAADGWYYRYPRDDYWGQGTQVTVSS | low polyreactivity
17 | QVQLGESGGGLVQAGGSLRLSCAASGRTFIYDAMGWYRQAPGKERELVAGISRNGGRTYYADSVKGRFTISRDNAKNTVYLKMNSLKPEDTAVYYCIARTYSYRGYNYWGQGTQVTVSS | high polyreactivity
